# Results published in patent US20090028859A1 (published 2009).
# B1: scFv 6.12 (scFv)
# scFv: QVKLQQSGAELVKPGASVKLSCTASGFNIKDTYIHWVKQSPEQGLEWIGWIDPPNDNTKYDPKFQGKATITADTSSNTAYMQLRSLTSEDTAVYYCALPPFYFDYWGHGTTVTVSSGGGGSGGGGSGGGGSDIELTQSPKFMSTSVGDRVSVTCKASQNVDTNVAWYQQKPGQSPKALIYSASYRYSGVPDRFTGSGSGTDFTLTISNVQSEDLAEYFCQQYNSFPYTFGGGTKLEIKRA
# notes: expressed soluble from pCANTAB 5E and detected with anti-E tag antibody; not shown: E tag from vector pCANTAB 5E
# B2: anti-KDR x anti-Flt-1 bifunctional diabody (bispecific antibody, part only; not given: anti-KDR domains, E tag, not shown: small tags and cut ends)
# chain, part 1: GGGGSQVKLQQSGAELVKPGASVKLSCTASGFNIKDTYIHWVKQSPEQGLEWIGWIDPPNDNTKYDPKFQGKATITADTSSNTAYMQLRSLTSEDTAVYYCALPPFYFDYWGHGTTVTVSS
# chain, part 2: DIELTQSPKFMSTSVGDRVSVTCKASQNVDTNVAWYQQKPGQSPKALIYSASYRYSGVPDRFTGSGSGTDFTLTISNVQSEDLAEYFCQQYNSFPYTFGGGTKLEIKRAGGGGS
# B3: scFv p1C11 (scFv)
# scFv: QVKLQQSGAELVGSGASVKLSCTTSGFNIKDFYMHWVKQRPEQGLEWIGWIDPENGDSDYAPKFQGKATMTADSSSNTAYLQLSSLTSEDTAVYYCNAYYGDYEGYWGQGTTVTVSSGGGGSGGGGSGGGGSDIELTQSPAIMSASPGEKVTITCSASSSVSYMHWFQQKPGTSPKLWIYSTSNLASGVPARFSGSGSGTSYSLTISRMEAEDAATYYCQQRSSYPFTFGSGTKLEIK
# notes: Mouse scFv from a phage library, VH and VL joined by (GGGGS)3, made soluble from pCANTAB 5E with a C-terminal E tag (detected with anti-E tag antibody); It is not known whether the entry includes the tag; also called anti-KDR scFv
# Key:
# Flt-1-Fc fusion protein [1] = target: T1, Flt-1-Fc fusion protein (human, UniProt P17948-2 27-687, limits assumed); assay: blocking ELISA: antibody mixed with a fixed amount of Flt-1-Fc, transferred to immobilized PlGF, plate-bound Flt-1-Fc detected with anti-human Fc-HRP, A450
# T1 construct: Bought from R&D Systems; also called VEGFR-1; not shown: Fc part
# T1 sequence (P17948 other isoform, or with tags, fused parts or gaps limits assumed): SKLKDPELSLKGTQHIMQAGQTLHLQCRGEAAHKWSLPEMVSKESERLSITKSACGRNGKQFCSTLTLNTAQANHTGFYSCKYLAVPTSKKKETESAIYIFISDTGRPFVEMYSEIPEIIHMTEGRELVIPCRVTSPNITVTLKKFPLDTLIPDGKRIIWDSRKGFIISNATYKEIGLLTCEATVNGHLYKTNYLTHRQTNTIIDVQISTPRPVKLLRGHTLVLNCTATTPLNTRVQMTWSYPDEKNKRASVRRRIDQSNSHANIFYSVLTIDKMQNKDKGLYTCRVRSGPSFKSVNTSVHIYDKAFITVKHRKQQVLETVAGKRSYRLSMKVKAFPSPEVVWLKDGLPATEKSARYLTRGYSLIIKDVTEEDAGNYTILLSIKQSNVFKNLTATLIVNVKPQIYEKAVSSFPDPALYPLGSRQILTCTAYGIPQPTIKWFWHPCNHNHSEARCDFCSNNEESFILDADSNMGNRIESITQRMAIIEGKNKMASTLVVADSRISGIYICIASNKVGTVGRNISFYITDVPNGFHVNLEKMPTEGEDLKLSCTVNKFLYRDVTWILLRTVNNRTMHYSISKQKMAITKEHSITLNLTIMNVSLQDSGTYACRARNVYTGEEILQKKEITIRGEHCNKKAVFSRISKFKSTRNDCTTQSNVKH
# Protocol: The assays followed previously described protocols (Zhu, Z. et al., 1998; Lu, D. et al., 1999). Briefly, various amounts of the diabody or scFv were mixed with a fixed amount of KDR-AP (100 ng) or Flt-1-Fc fusion protein (50 ng) and incubated at RT for 1 h. The mixture were then transferred to 96-well microtiter plates precoated with VEGF₁₆₅ (200 ng/well) or PlGF (200 ng/well) and incubated at RT for an additional 2 h, after which the plates were washed 5 times with PBS. For the KDR-AP assay, the substrate for AP was added, followed by reading of the absorbance at 405 nm to quantify the plate-bound KDR-AP. For the Flt-1-Fc assay, the plate was incubated with a mouse anti-human Fc-HRP conjugate to quantify the plate-bound Flt-1-Fc.
# Flt-1-Fc fusion protein [2] = target: T1, Flt-1-Fc fusion protein; assay: BIAcore SPR, Flt-1-Fc immobilized, antibody injected
# Protocol: The binding kinetics of the diabody and its parent scFv to KDR and Flt-1 were measured using a BIAcore biosensor (Pharmacia Biosensor). KDR-AP or Flt-1-Fc fusion protein was immobilized onto a sensor chip and soluble antibodies were injected at concentrations ranging from 1.5 nM to 100 nM. Sensorgrams were obtained at each concentration and were analyzed with, BIA Evaluation 2.0, a program to determine the rate constants kon and koff. The affinity constant, Kd, was calculated from the ratio of rate constants koff/kon.
# [3] = target: T2, KDR-alkaline phosphatase (AP) soluble fusion protein (human, UniProt P35968 20-764); assay: direct binding ELISA on immobilized KDR, detection with anti-E tag antibody-HRP, A450
# T2 construct: also called KDR-AP; soluble KDR; not shown: alkaline phosphatase (AP) fusion partner
# T2 sequence (P35968 20-764): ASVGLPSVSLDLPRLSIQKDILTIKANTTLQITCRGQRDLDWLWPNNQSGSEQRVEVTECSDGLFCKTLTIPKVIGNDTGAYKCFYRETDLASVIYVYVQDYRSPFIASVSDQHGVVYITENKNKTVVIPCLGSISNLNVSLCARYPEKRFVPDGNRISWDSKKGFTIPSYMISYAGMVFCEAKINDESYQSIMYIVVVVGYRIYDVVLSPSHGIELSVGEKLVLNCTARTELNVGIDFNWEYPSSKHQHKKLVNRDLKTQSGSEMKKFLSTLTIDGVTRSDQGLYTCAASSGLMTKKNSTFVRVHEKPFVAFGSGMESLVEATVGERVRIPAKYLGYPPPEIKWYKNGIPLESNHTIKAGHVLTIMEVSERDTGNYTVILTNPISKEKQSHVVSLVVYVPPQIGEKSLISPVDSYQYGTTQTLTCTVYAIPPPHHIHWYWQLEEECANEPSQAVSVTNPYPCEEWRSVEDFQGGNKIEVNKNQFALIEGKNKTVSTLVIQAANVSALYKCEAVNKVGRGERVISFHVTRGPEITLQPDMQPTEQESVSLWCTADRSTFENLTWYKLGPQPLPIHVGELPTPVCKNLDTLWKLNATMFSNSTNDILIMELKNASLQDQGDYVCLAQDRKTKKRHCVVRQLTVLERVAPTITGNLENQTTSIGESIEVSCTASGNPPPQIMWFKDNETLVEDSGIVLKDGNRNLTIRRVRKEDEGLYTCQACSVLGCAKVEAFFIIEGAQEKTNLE
# Protocol: (§1) Two assays were carried out to determine the dual antigen binding capability of the diabody. First, a cross-linking assay was used to investigate whether the diabody is capable of binding both of its target antigens simultaneously. Briefly, the diabody or its parent scFv were first incubated in a 96-well Maxi-sorp microtiter plate (Nunc, Roskilde, Denmark) precoated with Flt-1-Fc fusion protein (1 μg/ml×[…] per well overnight at 4° C.) at room temperature (RT) for 1 h. The plate was washed three times with PBS containing 0.1% Tween (PBST), followed by incubation with KDR-AP fusion protein at RT for additional 1 h. The plate-bound KDR-AP was then quantified by the addition of AP substrate, p-nitrophenyl phosphate (Sigma, St. Louis, Mo.), followed by reading of the absorbance at 405 nm (Lu, D. et al., 1999). In the second, direct binding assay, various amounts of diabody or scFv were added to KDR or Flt-1 coated 96-well plates and incubated at RT for 1 h, after which the plates were washed 3 times with PBST. The plates were then incubated at RT for 1 h with 100 μl of an anti-E tag antibody-HRP conjugate (Amersham Pharmacia Biotech). The plates were washed, peroxidase substrate added, and the absorbance at 450 nm read following the procedure described previously (Lu, D. et al., 1999).
# Flt-1-Fc fusion protein [4] = target: T1, Flt-1-Fc fusion protein; assay: direct binding ELISA on immobilized Flt-1, detection with anti-E tag antibody-HRP, A450
# Protocol: as §1
# Flt-1-Fc fusion protein [5] = target: T1, Flt-1-Fc fusion protein; assay: competition ELISA: inhibition of Flt-1-Fc binding to immobilized VEGF165, reference scFv 6.12
binder,measurement,setting,value
B1,IC50 (read off the curve),Flt-1-Fc fusion protein [1],~1 nM
same,Kd,Flt-1-Fc fusion protein [2],9.8 nM
same,koff,Flt-1-Fc fusion protein [2],0.00236 s⁻¹
same,kon,Flt-1-Fc fusion protein [2],241000 M⁻¹ s⁻¹
same,binding result,[3],no binding (tested: about 12 nM)
same,EC50 (read off the curve),Flt-1-Fc fusion protein [4],~0.6 nM
B2,fold less potent than the parent scFv 6.12,Flt-1-Fc fusion protein [5],10 fold
B3,EC50 (read off the curve),[3],~0.3 nM
